The values below come from patent US20190382493A1 (CYTOMX THERAPEUTICS, published 2019).

For experiment [1], the target named is T1, mouse PDL1 (R&D Systems) (mouse, UniProt Q9EP73 19-238).
T1 construct: also called mPDL1; murine PDL1
As to the kind of experiment: phage ELISA, antigen adsorbed, anti-M13-HRP. An excerpt:
(§1) Phage were applied to the plate and allowed to bind. Bound phage were visualized with an anti-M13-HRP conjugate (GE Healthcare, Piscataway, N.Y.) and developed with the chromogenic substrate tetramethyl benzidine (TMB) (Thermo Scientific, Rockford, Ill.).
A general note: In an ELISA, binding on a coated surface is turned into a signal by an enzyme label.

For another experiment, the target named is T2, human PDL1 (R&D Systems) (human, UniProt Q9NZQ7 19-239).
T2 construct: also called hPDL1; recombinant human PDL1 protein
T2 sequence (Q9NZQ7 19-239 limits assumed): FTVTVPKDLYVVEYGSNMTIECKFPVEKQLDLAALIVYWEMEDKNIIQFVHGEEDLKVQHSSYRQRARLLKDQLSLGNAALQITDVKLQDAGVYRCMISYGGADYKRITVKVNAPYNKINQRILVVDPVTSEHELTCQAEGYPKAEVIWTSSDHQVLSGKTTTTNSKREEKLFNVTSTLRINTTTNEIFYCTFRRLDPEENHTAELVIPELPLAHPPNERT
As to the kind of experiment: phage ELISA, antigen adsorbed, anti-M13-HRP.
Excerpt: as §1

Experiment [2] concerns the target T1, mouse PDL1 (R&D Systems). Briefly: phage ELISA on adsorbed mouse PDL1, PD1-Fc as competitor. An excerpt: Bound phage were visualized with an anti-M13-HRP conjugate (GE Healthcare, Piscataway, N.Y.) and developed with the chromogenic substrate tetramethyl benzidine (TMB) (Thermo Scientific, Rockford, Ill.).
Experiment [3] concerns the target T3, human PDL1-Fc (R & D Systems) (human, UniProt Q9NZQ7 19-239).
T3 construct: Bought reagent; not shown: Fc part of the bought fusion protein; not described
Briefly: ELISA, PDL1-Fc adsorbed, anti-human IgG (Fab specific)-HRP. The procedure: (§2) Bound antibody was visualized with an anti-human IgG-HRP conjugate, Fab specific, (Sigma, St Louis, Mo.; Cat # A0293-1ML) and developed with the chromogenic substrate TMB. […] Table 5 provides the SEQ ID NOs for the nucleic acid sequences and amino acids sequences of the respective variable heavy chains.
(§3) Bound antibody was visualized with an anti-human IgG-HRP conjugate, Fab specific, (Sigma, St Louis, Mo.; Cat # A0293-1ML) and developed with the chromogenic substrate TMB.

The target in experiment [4] is T4, mouse PDL1-Fc (R & D Systems) (mouse, UniProt Q9EP73 19-238).
T4 construct: Bought reagent; not shown: Fc part of the bought fusion protein; not described
T4 sequence (Q9EP73 19-238 limits assumed): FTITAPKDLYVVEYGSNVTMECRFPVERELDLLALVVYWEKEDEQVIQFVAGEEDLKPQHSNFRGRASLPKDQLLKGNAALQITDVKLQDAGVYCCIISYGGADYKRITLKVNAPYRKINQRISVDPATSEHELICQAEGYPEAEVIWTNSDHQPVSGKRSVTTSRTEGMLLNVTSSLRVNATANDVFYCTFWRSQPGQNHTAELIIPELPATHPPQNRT
The description is as above. The procedure: as §2, §3

Another experiment concerns the target T5, human B7H3 (R&D Systems) (human, UniProt Q5ZPR3-2 29-245, limits assumed).
T5 sequence (looked up): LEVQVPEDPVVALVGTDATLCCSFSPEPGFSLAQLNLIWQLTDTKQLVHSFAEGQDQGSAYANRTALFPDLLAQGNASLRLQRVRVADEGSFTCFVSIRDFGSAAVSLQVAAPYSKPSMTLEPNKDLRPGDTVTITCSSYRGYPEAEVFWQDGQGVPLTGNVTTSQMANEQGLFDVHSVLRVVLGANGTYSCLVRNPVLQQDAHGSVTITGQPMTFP
As to the kind of experiment: ELISA, antigen adsorbed. The procedure: as §3

In experiment [5] the target is T6, human CD28-Fc (R&D Systems) (human, UniProt P10747 19-152).
T6 construct: not shown: Fc part of the bought fusion protein; not described
As to the kind of experiment: ELISA, antigen adsorbed. The procedure:
as §3

Experiment [6] concerns the target T7, human B7-1-Fc (R&D Systems) (human, UniProt P33681 35-242).
T7 construct: not shown: Fc part of the bought fusion protein; not described
T7 sequence (looked up): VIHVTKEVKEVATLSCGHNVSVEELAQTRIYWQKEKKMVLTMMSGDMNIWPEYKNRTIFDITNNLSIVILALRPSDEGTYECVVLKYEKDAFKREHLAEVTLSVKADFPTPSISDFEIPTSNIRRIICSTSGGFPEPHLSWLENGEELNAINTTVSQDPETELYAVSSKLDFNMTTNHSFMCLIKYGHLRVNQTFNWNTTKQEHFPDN
Briefly: ELISA, antigen adsorbed. The procedure:
as §3

Experiment [7] addresses T7, human B7-1-Fc (R&D Systems). As to the kind of experiment: Fab-phage ELISA, antigen adsorbed. An excerpt:
(§4) Forty seven (47) individual isolates were chosen from the final pool. […] Briefly, the antigens were adsorbed to the wells of a 96-well ELISA plate, each ligand on a separate plate. Phage were applied to correlative wells on each plate and allowed to bind. Bound phage were visualized with an anti-M13-HRP conjugate and developed with the chromogenic substrate TMB. Based on the results of the ELISA and DNA sequence, 6 unique clones with matured heavy variable CDR3 domains and 10 heavy variable CDR2 domains were chosen for further study. […] Table 4 lists the heavy variable domains encoded by the clones and SEQ ID NOs for the nucleic acid sequences and amino acid sequences of their respective heavy chains.

The target of experiment [8] is T3, human PDL1-Fc (R & D Systems). Briefly: ELISA saturation binding (figure legend). The procedure: as §3
Experiment [9] shares this target. Briefly: ELISA saturation binding, PDL1-Fc adsorbed. On the procedure:
as §3

For experiment [10], the target named is T4, mouse PDL1-Fc (R & D Systems). As to the kind of experiment: ELISA saturation binding, PDL1-Fc adsorbed. On the procedure: as §3
Experiment [11] has as its target T3, human PDL1-Fc (R & D Systems). Briefly: ELISA, PDL1 adsorbed. On the procedure:
as §3

Experiment [12] deals with T8, cynomolgus monkey (cyno) PDL1-Fc (Sino biological) (cynomolgus monkey, UniProt G7PSE7 19-239).
T8 construct: Bought reagent; not shown: Fc part of the bought fusion protein; not described
T8 sequence (G7PSE7 entry or part of it): as the sequence (Q9NZQ7 19-239 limits assumed) above, with A33T, A34S, S62N, R68Q, Q82R, F173L, T185A, T192I, H215L counted along it
As to the kind of experiment: ELISA, PDL1 adsorbed. The procedure: as §3

Another experiment has as its target rat PDL1 (rat, UniProt D4AE25 19-239). Briefly: ELISA, PDL1 adsorbed. On the procedure:
as §3

Experiment [13] deals with T4, mouse PDL1-Fc (R & D Systems). Briefly: ELISA, PDL1 adsorbed. On the procedure:
as §3

Experiment [14] addresses T3, human PDL1-Fc (R & D Systems). As to the kind of experiment: Fab-phage ELISA, antigen adsorbed.
Excerpt: as §4

T3 sequence (Q9NZQ7 19-239 limits assumed): as the sequence (Q9NZQ7 19-239 limits assumed) above
T1 sequence (Q9EP73 19-238 limits assumed): as the sequence (Q9EP73 19-238 limits assumed) above
Chain of rat PDL1 (D4AE25 entry or part of it limits assumed, form in doubt): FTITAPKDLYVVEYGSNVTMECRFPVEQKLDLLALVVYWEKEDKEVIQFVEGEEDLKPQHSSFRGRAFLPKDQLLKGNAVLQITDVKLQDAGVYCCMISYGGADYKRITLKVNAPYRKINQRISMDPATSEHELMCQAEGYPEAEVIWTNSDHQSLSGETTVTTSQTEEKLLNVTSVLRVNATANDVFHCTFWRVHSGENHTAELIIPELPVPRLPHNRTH

B1: PDL1 c60 ScFv-phage (scFv)
scFv: EVQLLESGGGLVQPGGSLRLSCAASGFTFSSYAMSWVRQAPGKGLEWVSSIYSTGGATAYADSVKGRFTISRDNSKNTLYLQMNSLRAEDTAVYYCAKSSAGFDYWGQGTLVTVSSGGGGSGGGGSGGGGSTDIQMTQSPSSLSASVGDRVTITCRASQSISSYLNWYQQKPGKAPKLLIYYASTLQSGVPSRFSGSGSGTDFTLTISSLQPEDFATYYCQQDNGYPSTFGQGTKVEIKR
notes: also called clone 60
Consider B1, for which the binding result in the experiment with mouse PDL1 (R&D Systems) [1] and with human PDL1 (R&D Systems) was “binds” throughout.

B2: mouse PD1-Fc (R&D Systems) (Fc fusion, UniProt Q02242 25-167, looked up)
chain: LEVPNGPWRSLTFYPAWLTVSEGANATFTCSLSNWSEDLMLNWNRLSPSNQTEKQAAFCNGLSQPVQDARFQIIQLPNRHDFHMNILDTRRNDSGIYLCGAISLHPKAKIEESPGAELVVTERILETSTRYPSPSPKPEGRFQ
notes: Bought reagent; also called mPD1; not shown: Fc part of the bought fusion protein; not described
Take B2: the binding result with mouse PDL1 (R&D Systems) [2] is “binds”.

B3: anti-PDL1 antibody C5H9 (antibody, V domains shown)
VH: EVQLLESGGGLVQPGGSLRLSCAASGFTFSSYAMSWVRQAPGKGLEWVSSIWRNGIVTVYADSVKGRFTISRDNSKNTLYLQMNSLRAEDTAVYYCAKWSAAFDYWGQGTLVTVSS
VL: DIQMTQSPSSLSASVGDRVTITCRASQSISSYLNWYQQKPGKAPKLLIYYASTLQSGVPSRFSGSGSGTDFTLTISSLQPEDFATYYCQQDNGYPSTFGQGTKVEIKR
notes: Fully human IgG; also called PDL1 C5H9
For the molecule B3, the binding result in experiment [3] was “binds”; in [4], “binds”; with human B7H3 (R&D Systems), “no binding”; in experiment [5], “no binding”; in experiment [6], “no binding”.

B4: PDL1 E11 Fab-phage (Fab, V domains shown)
VH: EVQLLESGGGLVQPGGSLRLSCAASGFTFSSYAMSWVRQAPGKGLEWVSDIWKQGFATADSVKGRFTISRDNSKNTLYLQMNSLRAEDTAVYYCAKSSAGFDYWGQGTLVTVSS
VL: DIQMTQSPSSLSASVGDRVTITCRASQSISSYLNWYQQKPGKAPKLLIYYASTLQSGVPSRFSGSGSGTDFTLTISSLQPEDFATYYCQQDNGYPSTFGQGTKVEIKR
Turning to B4, the binding result in [7] is “no binding”.

B5: anti-PDL1 antibody G12E10 (antibody, V domains shown)
VH: EVQLLESGGGLVQPGGSLRLSCAASGFTFSSYAMSWVRQAPGKGLEWVSSIWYQGLVTVYADSVKGRFTISRDNSKNTLYLQMNSLRAEDTAVYYCAKWSKGFDYWGQGTLVTVSS
VL: DIQMTQSPSSLSASVGDRVTITCRASQSISSYLNWYQQKPGKAPKLLIYYASTLQSGVPSRFSGSGSGTDFTLTISSLQPEDFATYYCQQDNGYPSTFGQGTKVEIKR
notes: Fully human IgG; also called PDL1 G12E10
In the case of B5, in [3], the binding result is reported as “binds”.

B6: anti-PDL1 antibody G12H9 (antibody, V domains shown)
VH: EVQLLESGGGLVQPGGSLRLSCAASGFTFSSYAMSWVRQAPGKGLEWVSSIWYQGLVTVYADSVKGRFTISRDNSKNTLYLQMNSLRAEDTAVYYCAKWSAAFDYWGQGTLVTVSS
VL: DIQMTQSPSSLSASVGDRVTITCRASQSISSYLNWYQQKPGKAPKLLIYYASTLQSGVPSRFSGSGSGTDFTLTISSLQPEDFATYYCQQDNGYPSTFGQGTKVEIKR
notes: Fully human IgG; also called PDL1 G12H9
In the case of B6, in experiment [3], the binding result was “binds”.

B7: fully human anti-PDL1 c60 IgG (antibody, V domains shown)
VH: EVQLLESGGGLVQPGGSLRLSCAASGFTFSSYAMSWVRQAPGKGLEWVSSIYSTGGATAYADSVKGRFTISRDNSKNTLYLQMNSLRAEDTAVYYCAKSSAGFDYWGQGTLVTVSS
VL: DIQMTQSPSSLSASVGDRVTITCRASQSISSYLNWYQQKPGKAPKLLIYYASTLQSGVPSRFSGSGSGTDFTLTISSLQPEDFATYYCQQDNGYPSTFGQGTKVEIKR
notes: Fully human IgG with the variable domains of PDL1 c60; also called anti-PDL1 clone 60:IgG
In general, Kd refers to the free concentration of one partner at which half of the binding sites on the other are occupied at equilibrium, for simple one-to-one binding. B7: the Kd was approximately 1 nM in [8], 1 nM in experiment [9] and 30 nM in [10].

B8: anti-PDL1 antibody G12B10 (antibody, V domains shown)
VH: EVQLLESGGGLVQPGGSLRLSCAASGFTFSSYAMSWVRQAPGKGLEWVSSIWYQGLVTVYADSVKGRFTISRDNSKNTLYLQMNSLRAEDTAVYYCAKWSAGYDYWGQGTLVTVSS
VL: DIQMTQSPSSLSASVGDRVTITCRASQSISSYLNWYQQKPGKAPKLLIYYASTLQSGVPSRFSGSGSGTDFTLTISSLQPEDFATYYCQQDNGYPSTFGQGTKVEIKR
notes: Fully human IgG; also called PDL1 G12B10
As for B8, the binding result in [3] is given as “binds”.

B9: anti-PDL1 antibody C5H9v2 (antibody, V domains shown)
VH: EVQLLESGGGLVQPGGSLRLSCAASGFTFSSYAMSWVRQAPGKGLEWVSSIWRNGIVTVYADSVKGRFTISRDNSKNTLYLQMNSLRAEDTAVYYCAKWSAAFDYWGQGTLVTVSS
VL: DIQMTQSPSSLSASVGDRVTITCRASQSISSYLNWYQQKPGKAPKLLIYAASSLQSGVPSRFSGSGSGTDFTLTISSLQPEDFATYYCQQDNGYPSTFGGGTKVEIKR
notes: IgG; also called anti-PDL1 parental antibody C5H9v2
What is called EC50 is the concentration giving half of the maximal effect. For the molecule B9, the EC50 is 0.25 nM in experiment [11], 0.28 nM in experiment [12], 0.31 nM with rat PDL1 and 0.3 nM in experiment [13].

B10: anti-PDL1 antibody C5B10 (antibody, V domains shown)
VH: EVQLLESGGGLVQPGGSLRLSCAASGFTFSSYAMSWVRQAPGKGLEWVSSIWRNGIVTVYADSVKGRFTISRDNSKNTLYLQMNSLRAEDTAVYYCAKWSAGYDYWGQGTLVTVSS
VL: DIQMTQSPSSLSASVGDRVTITCRASQSISSYLNWYQQKPGKAPKLLIYYASTLQSGVPSRFSGSGSGTDFTLTISSLQPEDFATYYCQQDNGYPSTFGQGTKVEIKR
notes: Fully human IgG; also called PDL1 C5B10
On to B10, for which the binding result in experiment [3] is given as “binds”; in experiment [5] it was “no binding”; in experiment [6] it was “no binding”.

B11: anti-PDL1 antibody C5E10 (antibody, V domains shown)
VH: EVQLLESGGGLVQPGGSLRLSCAASGFTFSSYAMSWVRQAPGKGLEWVSSIWRNGIVTVYADSVKGRFTISRDNSKNTLYLQMNSLRAEDTAVYYCAKWSKGFDYWGQGTLVTVSS
VL: DIQMTQSPSSLSASVGDRVTITCRASQSISSYLNWYQQKPGKAPKLLIYYASTLQSGVPSRFSGSGSGTDFTLTISSLQPEDFATYYCQQDNGYPSTFGQGTKVEIKR
notes: Fully human IgG
As to B11, the results for the binding result in experiment [3], in experiment [5] and in [6] were “binds”, “no binding” and “no binding”, respectively.

B12: PDL1 h9 Fab-phage (Fab, V domains shown)
VH: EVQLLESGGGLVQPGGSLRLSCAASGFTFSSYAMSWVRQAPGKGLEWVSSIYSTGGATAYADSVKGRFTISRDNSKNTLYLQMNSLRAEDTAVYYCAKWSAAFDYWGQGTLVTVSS
VL: DIQMTQSPSSLSASVGDRVTITCRASQSISSYLNWYQQKPGKAPKLLIYYASTLQSGVPSRFSGSGSGTDFTLTISSLQPEDFATYYCQQDNGYPSTFGQGTKVEIKR
notes: also called CDR3 clone H9
Regarding B12, the binding result in experiment [14] is listed as “binds”; in experiment [7], “no binding”.

B13: PDL1 H06 Fab-phage (Fab, V domains shown)
VH: EVQLLESGGGLVQPGGSLRLSCAASGFTFSSYAMSWVRQAPGKGLEWVSSIWRQGLATAYDSVKGRFTISRDNSKNTLYLQMNSLRAEDTAVYYCAKSSAGFDYWGQGTLVTVSS
VL: DIQMTQSPSSLSASVGDRVTITCRASQSISSYLNWYQQKPGKAPKLLIYYASTLQSGVPSRFSGSGSGTDFTLTISSLQPEDFATYYCQQDNGYPSTFGQGTKVEIKR
Regarding B13, the binding result in experiment [7] is given as “no binding”.
